# Measurements: US7737158B2, “Processes for regulating blood glucose in a mammal” (Washington University, priority 2005, dated 2010)
# Entries after “also recorded” stand apart in the source; their conditions may differ.
# Tests used:
# mouse Nampt [1] = target: T1, mouse Nampt (Mus musculus, UniProt Q99KQ4); experiment: HPLC detection of Nampt reaction products; format: biochemical; set-up: expressed in transfected cells; cell extracts or culture supernatant, anti-FLAG immunoprecipitates; conditions: 37° C.
# Protocol: High performance liquid chromatography was used to detect Nampt reaction products. HPLC was performed with Waters 515 pumps and a 2487 detector (Waters, Mass.) with a Supelco LC-18-T column (15 cm×4.6 cm; Supelco, Pa.). The Nampt reaction was conducted at 37° C. for 15 min in 500 μl of reaction buffer (50 mM Tris-HCl [pH 7.5], 10 mM MgCl2, 50 mM nicotinamide, 0.2 mM PRPP) with 50 μg of the recombinant Nampt protein. The reaction was terminated by adding 125 μl of 1 M HClO4. Protein was then precipitated at 18,000 g, and 500 μl of the supernatant was neutralized with 40 μl of 3 M K2CO3. After centrifugation, 100 μl of sample was mixed with 400 μl of Buffer A (50 mM K2PO4/KHPO4, pH 7.0) and loaded into the HPLC system. The products from Nampt reaction were monitored by absorbance at 261 nm.
# mouse Nampt [2] = target: T1, mouse Nampt; experiment: Enzyme-coupled fluorometric assay, kinetic characterization of recombinant Nampt; format: biochemical; set-up: expressed in transfected cells; cell extracts or culture supernatant, anti-FLAG immunoprecipitates
# Protocol: Enzymatic activities of recombinant Nampt and Nmnat proteins were measured by an enzyme-coupled fluorometric assay (see, e.g., FIG. 4B). In this enzyme-coupled reaction, NAD is converted to NADH by alcohol dehydrogenase, and the fluorescence of NADH is detected in a fluorometer. To establish this assay system, optimal reaction conditions for Nmnat were initially examined by varying ATP and Mg^2+ concentrations and pH of the reaction buffer. The resultant reaction buffer for Nmnat contained 50 mM HEPES [pH 7.4], 0.02% BSA, 12 mM MgCl2, 2 mM ATP, 1.5% ethanol, and 30 μg/ml alcohol dehydrogenase to convert NAD to NADH. To determine the kinetic parameters for Nmnat, 30 ng of purified His-tagged Nmnat and varying concentrations of NMN were added to 1 ml of the reaction buffer. The reactions were run at 37° C. and quenched at six time points by the addition of 250 μl of 0.5 M EDTA. The production of NADH was measured by excitation at 340 nm and emission at 460 nm in a fluorometer. For kinetic characterization of Nampt, 500 ng of His-tagged Nampt and varying concentrations of nicotinamide were reacted at 37° C. in 100 μl of a buffer containing 50 mM Tris-HCl [pH 7.5], 0.02% BSA, 12 mM MgCl2, 2.5 mM ATP, 10 μg/ml His-tagged Nmnat, 0.4 mM phosphoribosyl pyrophosphate (PRPP), 1.5% ethanol, and 30 μg/ml alcohol dehydrogenase. NADH production was measured continuously in a fluorometer.
# By using this enzyme-coupled fluorometric assay, kinetic parameters of purified recombinant mouse Nampt and Nmnat for nicotinamide and NMN, respectively, were determined (see, e.g., Table 1). The Lineweaver-Burk plots for these two enzymes are shown, for example, in FIGS. 11A and 11B. […] The Km and Vmax of mouse Nmnat are consistent with previously reported values for human NMNAT-1 (Emanuelli et al., J. Biol. Chem. (2001) 276, 406-412).
# mouse Nampt [3] = target: T1, mouse Nampt; experiment: Enzyme-coupled fluorometric assay of immunoprecipitated Nampt-FLAG and recombinant Nampt; format: biochemical; set-up: expressed in transfected cells; host or cells: mouse NIH3T3 fibroblasts and mouse HIB-1B preadipocytes (differentiated), stably transfected with pCXN2-Nampt-FLAG; cell extracts or culture supernatant, anti-FLAG immunoprecipitates; conditions: NMN synthesis, 55 min at 37° C., pH8.5; Nampt amount quantified by Western blotting
# Protocol: For immunoprecipitation of intracellular Nampt, whole cell extracts were prepared with ice-cold immunoprecipitation (IP) buffer (phosphate buffer saline [pH 7.4], 0.5% NP-40, 1 mM EDTA,1 mM NaF, 10 μM Trichostatin A, 10 mM nicotinamide, 0.5 mM DTT, protease inhibitor cocktail (Roche)) and mixed with agarose beads conjugated with the mouse monoclonal M2 anti-FLAG antibody (F2426, Sigma) for 3-4 hours at 4° C. For immunoprecipitation of extracellular Nampt, HIB-1B culture supernatants were collected after incubating differentiated HIB-1B cells overnight with DMEM without fetal bovine serum but supplemented with 1 μg/ml insulin and 1 nM triodothyronine, filtered through a 0.22-μm PES membrane, concentrated with Amicon Ultra-15 columns (Millipore, MA), and mixed with anti-FLAG beads for 3-4 hours at 4° C. Immunoprecipitates were washed twice with the IP buffer and twice with PBS.
# Immunoprecipitates on anti-FLAG beads were incubated in enzymatic reaction buffer (50 mM Tris-HCl (pH8.5), 100 mM NaCl, 0.25 mM Nicotinamide, 10 mM MgSO4, 1.5% Ethanol, 0.5 mM PRPP, 2.0 mM ATP) for 55 min at 37° C. After this reaction, mouse recombinant nicotinamide mononucleotide adenylyltransferase and yeast alcohol dehydrogenase (Sigma) were added at 10 μg/ml as the final concentration for each, and the mixture was incubated for 5 min at 37° C. Supernatants were then collected by spinning down anti-FLAG beads, and autofluorescence of NADH was measured in a Perkin Elmer LS 50B fluorometer (excitation: 340 nm; emission: 460 nm). Immunoprecipitates bound on anti-FLAG beads were extracted with Laemmli's sample buffer, boiled for 5 minutes, and analyzed by Western blotting with anti-Nampt antibodies. The amounts of Nampt used for enzymatic reactions were quantitated compared to the standards of mouse recombinant Nampt.
# The immunoprecipitates from the HIB-1B culture supernatants were subjected to enzyme-coupled fluorometric assays (see Revollo et al., J. Biol. Chem., (2004)279, 50754-50763) to compare enzymatic activity of the intracellular and extracellular forms of Nampt. […] The Nampt enzymatic activity of the bacterially produced recombinant Nampt and the intracellular Nampt-FLAG® immunoprecipitated from HIB-1B and NIH3T3 cellular extracts were also measured and their kcat values calculated (see FIG. 16E). […] It is believed that a post-translational modification may be responsible for the altered enzymatic activity of extracellular Nampt produced by brown adipocytes. […] Despite the extensive mass spectrometric analysis of extracellular Nampt, the precise nature of the modification is currently unknown. Taken together, these findings provide strong evidence that Nampt functions as an NAD biosynthetic enzyme both intra- and extracellularly.
# wild type males = experiment: Blood glucose after intraperitoneal injection of recombinant Nampt in fed wild type mice; format: in vivo, mouse; conditions: 1000 pmoles intraperitoneally, fed wild type males, 0, 30, 60 min
# Protocol: If the NAD biosynthetic activity of Nampt is responsible for the phenotypes observed in Nampt^+/− mice, the administration of NMN, a product of the Nampt enzymatic reaction, should be able to correct their problems. To test this possibility, the same Nampt^+/− mice that were used for IPGTTs were injected with NMN at a dose of 500 mg/kg body weight intraperitoneally ˜14 hrs prior to IPGTTs. As a control, PBS was injected to the mice ˜14 hrs before conducting previous IPGTTs. […] Because these findings completely contradict the conclusion by Fukuhara et al., the reproducibility of the insulin-mimetic activity of this protein was examined. Here, 1000 pmoles of the bacterially produced recombinant protein of mouse His-tagged Nampt were injected intraperitoneally to fed wild type males. Blood glucose levels were monitored with a glucometer at 0, 30, and 60 min time points after injection.
# [4] = purified His-tagged recombinant mouse Nampt, substrate nicotinamide
molecule,measurement,setting,value
"Nampt: Bacterially produced, His-tagged recombinant mouse nicotinamide phosphoribosyltransferase (protein) MNAAAEAEFNILLATDSYKVTHYKQYPPNTSKVYSYFECREKKTENSKVRKVKYEETVFYGLQYILNKYLKGKVVTKEKIQEAKEVYREHFQDDVFNERGWNYILEKYDGHLPIEVKAVPEGSVIPRGNVLFTVENTDPECYWLTNWIETILVQSWYPITVATNSREQKKILAKYLLETSGNLDGLEYKLHDFGYRGVSSQETAGIGASAHLVNFKGTDTVAGIALIKKYYGTKDPVPGYSVPAAEHSTITAWGKDHEKDAFEHIVTQFSSVPVSVVSDSYDIYNACEKIWGEDLRHLIVSRSTEAPLIIRPDSGNPLDTVLKVLDILGKKFPVTENSKGYKLLPPYLRVIQGDGVDINTLQEIVEGMKQKKWSIENVSFGSGGALLQKLTRDLLNCSFKCSYVVTNGLGVNVFKDPVADPNKRSKKGRLSLHRTPAGNFVTLEEGKGDLEEYGHDLLHTVFKNGKVTKSYSFDEVRKNAQLNIEQDVAPH",synthesis of nicotinamide mononucleotide (NMN) from nicotinamide and PRPP,mouse Nampt [1],robust synthesis
same,synthesis of nicotinamide mononucleotide (NMN) from nicotinamide and PRPP,mouse Nampt [1]; listed as mouse Nampt,produced nicotinamide mononucleotide (NMN)
same,synthesis of nicotinic acid mononucleotide (NaMN) from nicotinic acid and PRPP,mouse Nampt [1]; substrate specificity,failed to catalyze; also recorded: did not synthesize
same,"catalytic efficiency of Nampt, fold less than that of Nmnat",mouse Nampt [2]; Nampt (nicotinamide) versus Nmnat (NMN),~46 fold
same,Vmax,mouse Nampt [2]; [4],0.021 µmol/min/mg
same,kcat,mouse Nampt [2]; [4],0.020 s⁻¹
same,Km,"mouse Nampt [2]; purified His-tagged recombinant mouse Nampt, substrate nicotinamide, 37° C.",0.92 µM
same,kcat,mouse Nampt [3],0.035 s⁻¹
same,blood glucose levels,wild type males; listed as recombinant Nampt,no significant effect
same,blood glucose levels,wild type males; listed as recombinant Nampt protein,no decrease
